From patent publication US20240076332A1

Target: cell surface bound heterodimeric receptor protein comprising a tyrosine kinase FGFR1c and a beta-Klotho protein (UniProt P11362)
Test: cell-based or functional assay

Chain of UniProt P11362 (P11362 22-822, chain 1 of 2): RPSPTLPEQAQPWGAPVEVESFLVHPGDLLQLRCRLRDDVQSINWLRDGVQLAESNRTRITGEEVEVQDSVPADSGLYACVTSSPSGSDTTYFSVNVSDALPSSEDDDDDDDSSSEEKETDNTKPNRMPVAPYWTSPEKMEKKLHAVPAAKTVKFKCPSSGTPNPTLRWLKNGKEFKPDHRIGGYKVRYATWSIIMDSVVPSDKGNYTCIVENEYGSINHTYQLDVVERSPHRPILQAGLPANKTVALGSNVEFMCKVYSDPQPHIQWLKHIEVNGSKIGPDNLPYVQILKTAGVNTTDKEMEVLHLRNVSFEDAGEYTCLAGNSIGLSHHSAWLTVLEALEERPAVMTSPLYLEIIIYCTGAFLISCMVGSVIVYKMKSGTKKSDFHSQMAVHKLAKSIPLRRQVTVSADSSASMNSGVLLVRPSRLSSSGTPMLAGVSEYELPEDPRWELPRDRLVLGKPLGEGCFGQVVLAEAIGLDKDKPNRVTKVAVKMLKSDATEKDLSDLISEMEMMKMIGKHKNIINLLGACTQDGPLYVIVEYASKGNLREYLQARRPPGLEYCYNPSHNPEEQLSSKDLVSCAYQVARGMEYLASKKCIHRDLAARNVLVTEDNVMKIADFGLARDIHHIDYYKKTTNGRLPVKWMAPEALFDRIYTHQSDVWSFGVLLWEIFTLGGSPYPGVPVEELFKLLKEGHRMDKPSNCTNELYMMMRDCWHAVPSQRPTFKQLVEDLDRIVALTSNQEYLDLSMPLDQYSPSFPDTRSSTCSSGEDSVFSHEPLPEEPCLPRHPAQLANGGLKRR
Chain of UniProt P11362 (Q86Z14 whole entry, chain 2 of 2, further chain): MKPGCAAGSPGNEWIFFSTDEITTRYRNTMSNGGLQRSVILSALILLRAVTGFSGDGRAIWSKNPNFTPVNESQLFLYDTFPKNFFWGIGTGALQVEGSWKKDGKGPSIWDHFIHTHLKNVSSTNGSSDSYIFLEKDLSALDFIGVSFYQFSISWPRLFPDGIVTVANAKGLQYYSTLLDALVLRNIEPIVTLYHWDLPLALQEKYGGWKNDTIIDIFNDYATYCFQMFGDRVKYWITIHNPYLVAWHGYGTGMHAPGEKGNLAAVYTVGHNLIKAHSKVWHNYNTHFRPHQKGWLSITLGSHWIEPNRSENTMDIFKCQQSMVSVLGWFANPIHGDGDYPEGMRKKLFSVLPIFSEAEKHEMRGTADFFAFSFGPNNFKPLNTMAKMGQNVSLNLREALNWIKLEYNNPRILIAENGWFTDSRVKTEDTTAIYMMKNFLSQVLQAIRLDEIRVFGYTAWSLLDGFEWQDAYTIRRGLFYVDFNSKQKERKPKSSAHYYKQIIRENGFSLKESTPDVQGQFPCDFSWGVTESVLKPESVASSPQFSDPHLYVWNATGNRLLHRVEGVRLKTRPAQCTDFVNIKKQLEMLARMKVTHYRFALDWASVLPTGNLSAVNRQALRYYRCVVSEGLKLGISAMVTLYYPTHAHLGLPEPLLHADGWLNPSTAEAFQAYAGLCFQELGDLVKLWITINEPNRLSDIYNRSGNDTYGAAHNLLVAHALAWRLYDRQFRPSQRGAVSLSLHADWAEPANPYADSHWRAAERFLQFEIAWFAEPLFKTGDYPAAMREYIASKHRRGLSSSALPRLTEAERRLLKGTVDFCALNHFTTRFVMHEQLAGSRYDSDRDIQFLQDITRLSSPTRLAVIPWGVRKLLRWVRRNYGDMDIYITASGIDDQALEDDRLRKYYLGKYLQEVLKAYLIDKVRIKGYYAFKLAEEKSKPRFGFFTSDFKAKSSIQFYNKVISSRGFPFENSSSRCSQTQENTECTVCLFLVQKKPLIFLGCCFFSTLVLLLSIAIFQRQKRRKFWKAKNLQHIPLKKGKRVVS

EC50 of firefly luciferase reporter-gene response (Gal4-Elk-1), HEK293 cells with FGFR1c and optimized synthetic beta-Klotho gene, treated with increasing concentrations of human FGF21: 0.003 µg/mL | EC50 of firefly luciferase reporter-gene response, HEK293 cells with FGFR1c and native beta-Klotho gene, freeze, thaw and use format: 0.024 µg/mL | EC50 of firefly luciferase reporter-gene response, HEK293 cells with FGFR1c and optimized synthetic beta-Klotho gene, freeze, thaw and use format: 0.007 µg/mL | EC50 of firefly luciferase reporter-gene response, Jurkat cells transfected with the native beta-Klotho gene (Table 1): 0.172 µg/mL | EC50 of firefly luciferase reporter-gene response, Jurkat cells with FGFR1c and native beta-Klotho gene, freeze, thaw and use format: 0.17 µg/mL
Substance: human FGF21 (from UniProt Q9NSA1 29-209) (ligand)
